Article PMC12319226 (Frontiers in Bioinformatics, 2025)
Several values for one entry are separate records, joined by “and”; a condition that tells them apart may be missing. Equal values may be shown once.

T1: fHbp m000019 (Neisseria meningitidis, fHbp v1.1 …, point mutant)
T1 chain: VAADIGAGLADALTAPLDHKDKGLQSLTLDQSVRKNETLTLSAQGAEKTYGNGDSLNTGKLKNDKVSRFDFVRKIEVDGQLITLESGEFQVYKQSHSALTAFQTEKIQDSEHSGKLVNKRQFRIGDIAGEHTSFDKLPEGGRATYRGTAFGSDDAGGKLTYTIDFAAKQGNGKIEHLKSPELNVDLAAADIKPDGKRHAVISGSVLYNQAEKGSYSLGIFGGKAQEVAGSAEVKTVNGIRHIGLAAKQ

T2: fHbp m001691 (Neisseria meningitidis; fHbp …, point mutant)
T2 chain: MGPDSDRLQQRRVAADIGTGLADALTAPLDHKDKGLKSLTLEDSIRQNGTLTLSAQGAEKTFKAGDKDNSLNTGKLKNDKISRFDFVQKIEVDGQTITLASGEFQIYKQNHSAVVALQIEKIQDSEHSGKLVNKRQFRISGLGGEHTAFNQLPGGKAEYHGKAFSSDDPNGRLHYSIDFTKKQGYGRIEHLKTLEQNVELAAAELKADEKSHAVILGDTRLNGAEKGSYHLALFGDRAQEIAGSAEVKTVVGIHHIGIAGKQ

T3: fHbp m001927 (Neisseria meningitidis; fHbp …, chimera)
T3 chain: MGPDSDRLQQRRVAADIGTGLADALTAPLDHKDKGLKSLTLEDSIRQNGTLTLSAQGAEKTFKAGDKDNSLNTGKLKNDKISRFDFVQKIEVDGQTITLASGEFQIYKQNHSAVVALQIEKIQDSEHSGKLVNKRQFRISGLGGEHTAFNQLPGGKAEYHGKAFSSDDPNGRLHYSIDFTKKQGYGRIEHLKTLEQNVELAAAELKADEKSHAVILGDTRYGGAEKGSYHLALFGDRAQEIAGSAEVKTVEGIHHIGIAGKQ

T4: fHbp m002252 (Neisseria meningitidis; fHbp …, chimera)
T4 chain: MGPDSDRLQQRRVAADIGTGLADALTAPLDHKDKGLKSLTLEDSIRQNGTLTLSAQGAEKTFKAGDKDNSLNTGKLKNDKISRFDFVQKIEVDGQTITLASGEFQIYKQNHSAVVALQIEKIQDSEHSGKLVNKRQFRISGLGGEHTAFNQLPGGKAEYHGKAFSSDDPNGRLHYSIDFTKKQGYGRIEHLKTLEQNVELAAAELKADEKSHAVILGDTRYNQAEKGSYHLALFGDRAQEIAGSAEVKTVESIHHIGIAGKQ

T5: fHbp m002332 (Neisseria meningitidis; fHbp …, chimera)
T5 chain: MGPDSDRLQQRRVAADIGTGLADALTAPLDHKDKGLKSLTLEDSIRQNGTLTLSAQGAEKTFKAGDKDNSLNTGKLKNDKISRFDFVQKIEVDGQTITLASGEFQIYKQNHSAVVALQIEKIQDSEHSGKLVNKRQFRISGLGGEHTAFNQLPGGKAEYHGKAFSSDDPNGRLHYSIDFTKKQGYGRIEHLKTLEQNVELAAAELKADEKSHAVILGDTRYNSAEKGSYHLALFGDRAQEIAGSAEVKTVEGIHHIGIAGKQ

T6: fHbp m002335 (Neisseria meningitidis; fHbp …, chimera)
T6 chain: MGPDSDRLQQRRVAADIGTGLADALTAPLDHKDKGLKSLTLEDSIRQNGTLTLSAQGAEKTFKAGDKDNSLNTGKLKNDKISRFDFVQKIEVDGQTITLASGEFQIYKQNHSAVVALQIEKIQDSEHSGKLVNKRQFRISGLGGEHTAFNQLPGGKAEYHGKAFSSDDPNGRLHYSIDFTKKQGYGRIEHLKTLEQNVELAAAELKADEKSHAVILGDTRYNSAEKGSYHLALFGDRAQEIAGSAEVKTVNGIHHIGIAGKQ

T7: fHbp m002413 (Neisseria meningitidis, designed fHbp …, chimera)
T7 chain: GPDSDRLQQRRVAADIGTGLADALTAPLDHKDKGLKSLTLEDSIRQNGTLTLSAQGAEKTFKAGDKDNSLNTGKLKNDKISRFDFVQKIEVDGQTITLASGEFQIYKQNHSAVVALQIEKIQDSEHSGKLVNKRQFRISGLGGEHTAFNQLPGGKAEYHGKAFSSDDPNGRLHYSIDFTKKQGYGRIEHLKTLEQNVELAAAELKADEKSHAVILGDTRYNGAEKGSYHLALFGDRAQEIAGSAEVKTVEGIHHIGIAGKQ

T8: fHbp m002416 (Neisseria meningitidis, designed fHbp …, chimera)
T8 construct: also called fHbp 2,416; Round 2 best mutant
T8 chain: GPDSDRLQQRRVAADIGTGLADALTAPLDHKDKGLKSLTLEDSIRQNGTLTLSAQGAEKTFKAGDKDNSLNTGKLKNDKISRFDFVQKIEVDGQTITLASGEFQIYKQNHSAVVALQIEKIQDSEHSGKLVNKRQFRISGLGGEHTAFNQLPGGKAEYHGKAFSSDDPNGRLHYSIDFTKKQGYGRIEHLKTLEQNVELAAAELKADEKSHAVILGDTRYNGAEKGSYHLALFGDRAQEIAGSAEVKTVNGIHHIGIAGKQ


Tests used:
Assay in all cases: BLI
Conditions in all cases: both partners purified
[1] = molecular target: T1, fHbp m000019
[2] = molecular target: T9, factor H binding protein variant 1.1 (Neisseria meningitidis serogroup B …, UniProt Q9JXV4)
T9 construct: also called fHbp v1.1; v1.1 Control (0001)

[3] = molecular target: T2, fHbp m001691
[4] = molecular target: T3, fHbp m001927
[5] = molecular target: T4, fHbp m002252
[6] = molecular target: T5, fHbp m002332
[7] = molecular target: T6, fHbp m002335
[8] = molecular target: T7, fHbp m002413
[9] = molecular target: T8, fHbp m002416

Binder | Kd [3] [nM] | koff [3] [s⁻¹] | kon [3] [M⁻¹ s⁻¹] | Kd [4] [nM] | koff [4] [s⁻¹] | kon [4] [M⁻¹ s⁻¹] | Kd [5] [nM] | koff [5] [s⁻¹] | kon [5] [M⁻¹ s⁻¹] | Kd [6] [nM] | koff [6] [s⁻¹] | kon [6] [M⁻¹ s⁻¹] | Kd [7] [nM] | koff [7] [s⁻¹] | kon [7] [M⁻¹ s⁻¹] | Kd [8] | koff [8] | kon [8] | koff [9] [s⁻¹] | kon [9] [M⁻¹ s⁻¹] | also measured
mAb 4B3 (human) (antibody, V domains shown, also called 4B3-2; source: Expi293, purified (MabSelect SuRe, SEC); copies: 2 + 2) VH: QVQLVQSGGGLVKPGGSLRLSCAASGFPFSSYYMSWIRQAPGKGLEWVSDINNSGNVKEYADFVKGRLTISRDNVKNSMYLHMNSLRVEDTAVYYCARNRGRFDVWGQGTLVTVSA VL: EIVMTQSPGTLSLSPGETATLSCRASQMISSPFLAWYQQRRGQAPRLLIYGASTRATDTPDRFRGSGSGTDFILTISRLEPEDFAVYYCQYYDDSPFTFGQGTKLEIK | 3.1 | 0.000731 | 235300 ± 1280 | 3.64 | 0.000943 | 259300 ± 1550 | 1.27 | 0.000415 | 327400 ± 2090 | 4.04 | 0.00118 | 291800 ± 1150 | 5.08 | 0.00109 | 214100 ± 1500 | 4.57 nM and 3.74 nM | 0.00112 s⁻¹ and 0.00115 s⁻¹ | 245000 M⁻¹ s⁻¹ and 307000 M⁻¹ s⁻¹ | 0.00113 | 296100 ± 925 | Kd [1]: 5.53 nM; koff [1]: 0.00124 s⁻¹; kon [1]: 224400 ± 1040 M⁻¹ s⁻¹; Kd [2]: 1.33 nM; koff [2]: 0.00103 s⁻¹; kon [2]: 767900 ± 4960 M⁻¹ s⁻¹
chimeric antibody hJAR5 (antibody, V domains shown, also called hJAR5-2; humanized JAR5; source: Expi293, purified (MabSelect SuRe, SEC); copies: 2 + 2) VH: QVQMQQPGAELVKPGASVKLSCKASGYTFISYWMHWVKQRPGRGLEWIGRIAPDTGIIYYNEKFKNKATLTVDTPSSTAYMQLNSLTSEDSAVYYCARYLKYDGSTYRFDYWGQGTTLTVSS VL: DIVMTQAAPSVPVTPGESVSISCRSSKSLLHSNGNTYLFWFLQRPGQSPQLLIYRMSNLASGVPDRFSGSGSGTSFTLRISRVEAEDVGVYYCMQHLEYPYTFGGGTKLEIK | 0.838 |  |  | 0.824 |  |  | 5.07 |  |  | 0.662 |  |  | 0.883 |  |  | 1.09 nM |  |  |  |  | 
mAb 1E6 (human) (antibody, V domains shown, source: Expi293, purified (MabSelect SuRe, SEC); copies: 2 + 2) VH: EVQLVQSGAEVKKPGSSVKVSCKASGGTVIDYPITWVRQAPGQGLEWVGGFVPLFRTSNYGQKFQGRVTITADKSTSTASMELNSLTSEDTAIYYCARGDTAMGPFDYWGQGTLVTVSS VL: SYVLTQPPSLSVAPGKTATLTCGGNNIAGKTVHWYQQRPGQAPVLVISYDSDRPSGIPERFSGSNSANTATLTISRVEAGDEADYYCQVWDRNSDHWVFGGGTKLTVL | 1.01 | 0.000364 | 361600 ± 1550 | 0.293 | 0.000118 | 402600 ± 1680 | 0.133 | 4.06e-05 | 304600 ± 2710 | 0.708 | 0.000264 | 373200 ± 1990 | 0.137 | 0.000102 | 744000 ± 3230 | 0.66 nM | 0.000271 s⁻¹ | 410700 ± 2050 M⁻¹ s⁻¹ | 0.000104 | 322000 ± 2420 | Kd [1]: 2.19 nM; koff [1]: 0.00153 s⁻¹; kon [1]: 698800 ± 3080 M⁻¹ s⁻¹; Kd [2]: 3.4 nM; koff [2]: 0.00447 s⁻¹; kon [2]: 1.32e+06 ± 14800 M⁻¹ s⁻¹
chimeric antibody h12C1 (antibody, V domains shown, also called humanized 12C1; source: Expi293, purified (MabSelect SuRe, SEC); copies: 2 + 2) VH: QVQLQESGPELVKPGASVKISCKASGYSFSDYNMSWVKQSNGKSLEWIGIIDPKYGTINYNQKFKGKATLTVDQASSTAYMQLNSLTSEDSAVYYCVRDYYGSSYFDYWGQGTTLTVSS VL: DIVLTQSPSSIYASLGERVTLTCKASQDIHNYLNWFQQKPGKSPKTLIYRANRLVDGVPSRFSGGGSGQDYSLTISSLEFEDIGIYYCLQYDEFPPTFGGGTRLEIK | 34 | 0.00857 | 252000 ± 2680 | 0.38 | 7.94e-05 | 209200 ± 1710 | 0.269 | 4.04e-05 | 150400 ± 1270 | 1.19 | 0.000253 | 212700 ± 1530 | 0.235 | 8.01e-05 | 340700 ± 1750 | 1.1 nM | 0.000237 s⁻¹ | 214700 ± 1140 M⁻¹ s⁻¹ | 5.89e-05 | 201100 ± 1150 | 
